Assay results published in patent publication US20220227882A1 (TRUSTEES OF TUFTS COLLEGE, published 2022).

T1: Recombinant human ADAM15 (Sino Biological, 10517-H08H) (human, UniProt Q13444 18-696)
T1 sequence (looked up): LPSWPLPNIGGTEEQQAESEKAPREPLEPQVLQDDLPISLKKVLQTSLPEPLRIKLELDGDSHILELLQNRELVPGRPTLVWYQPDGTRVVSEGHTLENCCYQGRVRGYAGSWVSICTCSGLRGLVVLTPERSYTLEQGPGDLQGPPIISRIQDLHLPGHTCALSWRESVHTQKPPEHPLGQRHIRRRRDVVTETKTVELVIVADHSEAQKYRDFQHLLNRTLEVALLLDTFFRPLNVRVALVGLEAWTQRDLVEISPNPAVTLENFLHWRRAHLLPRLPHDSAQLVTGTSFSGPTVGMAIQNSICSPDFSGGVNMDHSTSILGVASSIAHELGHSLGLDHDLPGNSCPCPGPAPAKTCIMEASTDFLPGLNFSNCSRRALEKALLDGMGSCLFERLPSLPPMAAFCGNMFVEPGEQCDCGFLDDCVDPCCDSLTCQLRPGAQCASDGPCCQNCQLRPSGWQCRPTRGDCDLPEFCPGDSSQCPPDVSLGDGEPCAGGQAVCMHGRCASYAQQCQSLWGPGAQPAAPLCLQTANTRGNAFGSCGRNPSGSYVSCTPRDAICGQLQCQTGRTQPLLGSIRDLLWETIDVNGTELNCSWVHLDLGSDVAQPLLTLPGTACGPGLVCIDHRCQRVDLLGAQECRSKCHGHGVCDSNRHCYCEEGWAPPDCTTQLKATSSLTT

T2: R482A (Homo sapiens, UniProt P78325)
T2 construct: expressed on HEK293 cells; also called human ADAM8 point mutant R482A
T2 sequence (ADAM8, looked up): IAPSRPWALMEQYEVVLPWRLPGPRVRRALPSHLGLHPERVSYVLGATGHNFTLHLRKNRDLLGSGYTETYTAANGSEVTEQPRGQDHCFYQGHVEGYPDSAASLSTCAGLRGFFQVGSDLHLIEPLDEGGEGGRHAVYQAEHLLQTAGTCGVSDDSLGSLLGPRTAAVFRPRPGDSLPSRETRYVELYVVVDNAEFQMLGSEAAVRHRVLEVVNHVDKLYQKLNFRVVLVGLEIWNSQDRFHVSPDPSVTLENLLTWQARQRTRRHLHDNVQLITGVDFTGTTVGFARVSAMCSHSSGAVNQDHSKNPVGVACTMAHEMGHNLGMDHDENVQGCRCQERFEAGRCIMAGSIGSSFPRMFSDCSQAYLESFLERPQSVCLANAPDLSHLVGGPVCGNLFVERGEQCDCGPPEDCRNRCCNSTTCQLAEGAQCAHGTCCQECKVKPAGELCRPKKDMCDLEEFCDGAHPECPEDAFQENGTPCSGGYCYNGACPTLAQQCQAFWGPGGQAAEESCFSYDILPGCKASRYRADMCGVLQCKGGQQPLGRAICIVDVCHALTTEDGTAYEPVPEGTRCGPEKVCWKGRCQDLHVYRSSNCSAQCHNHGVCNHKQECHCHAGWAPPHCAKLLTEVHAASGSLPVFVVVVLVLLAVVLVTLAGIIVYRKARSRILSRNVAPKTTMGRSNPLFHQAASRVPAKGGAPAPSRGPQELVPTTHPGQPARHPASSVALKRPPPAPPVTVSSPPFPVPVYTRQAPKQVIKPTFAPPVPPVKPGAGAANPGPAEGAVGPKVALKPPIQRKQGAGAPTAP

B1: ADP2 (antibody, V domains shown)
VH: EVKLVESGGGLVQPGGSLSLSCAASGFSFPDYYMSWVRQPPGKALEWLGFIRDSANGYTTEYIASVKGRFTFSRDNSQSILYLQMNALRAEDSATYYCARYSRYYGMDYWGQGTSVTVSS
VL: SIVMTQTPKILLVSAGDRVTITCKASQTVNYDVAWYQQKPGQSPKPVIYFASNRYTGVPDRFTGSGFGTDFTFTISTVQAEDLAVYFCQQDYSAPWTFGGGTKLEIK
notes: also called mADP2; mouse ADP2
B2: ADP13 Fab (Fab, V domains shown)
VH: EVQLQQSGPEMVKPGTSVKISCKASGYTFTDYYINWVKQSHGKSLEWIGDISPNIGGATYNPKFKGKAILTVDKSARTAYMELRSLTSEDSAVYCCTRGGSSYPYFYAMDYWGQGTSVTVSS
VL: DIVMSQSPSSLAVSVGEKVTMSCKSSQSLLYSSNQKKYLAWYQQKPGQSPKLLIYWASTRESGVPDRFTGSGSGTDFTLTISSVKAEDLAVYYCQQFYSYPYTFGGGTKLEINR

What was measured:
[1] = target: T1, Recombinant human ADAM15 (Sino …); assay: ELISA, recombinant ADAM15
Protocol: ELISA assays were also used to test hybridoma clones, subclones and purified ADP antibodies for specificity of ADAM8 binding, i.e., binding to rHuADAM8 (Acro Biosystems, AD8-H5223) was compared to binding to closely related recombinant human ADAM proteins: […], ADAM12 (Acro Biosystems, AD2-H5228) and ADAM15 (Sino Biological, 10517-H08H). For analysis of clones and subclones, 50 μl of cell supernatants were used. A test bleed sample (1:1000) was used as a positive control. Hybridoma culture medium or a pre-bleed serum sample (1:1000) was used as a negative control. Purified mouse ADPs were assessed at 1 μg/ml vs normal mouse IgG and with a test bleed sample as a positive control. ADP binding was detected with a goat anti-mouse IgG (Fc specific)-peroxidase antibody (1:5000, Sigma-Aldrich, A0168).

R482A = target: T2, R482A; assay: high-throughput flow cytometry, HEK293 cells with mutant ADAM8, high stringency; range in parentheses; closed box
Protocol: A variety of experimental parameters were optimized for high-throughput flow cytometry including blocking buffer, and primary and secondary antibody concentrations, to identify the optimal conditions for screening. Through these studies ADP2 and ADP13 were determined to be high affinity binding antibodies.
Thus, for these studies antigen-binding fragments (Fabs) of ADP2 and ADP13, which bind with lower affinity than the full antibody, were generated. In addition, higher binding stringency conditions were tested, such as increased pH, salinity, and temperature, and/or increased washing, to weaken binding sufficiently to allow identification of critical binding residues in flow cytometry. The final experimental flow cytometry conditions were: primary antibody incubation with ADP2 Fab (0.50 μg/ml), ADP13 Fab (5.00 μg/ml) and Control Ab (0.16 μg/ml) for 60 minutes in flow cytometry buffer containing 10% goat serum in PBS (Ca²⁺ and Mg²⁺ free). […] Samples were washed three times after primary antibody incubation and twice after secondary antibody incubation with PBS (Ca²⁺ and Mg′ free). Next, HEK293 cells expressing WT or mutated ADAM8 proteins or EV DNA were incubated with ADP2 or ADP13 Fabs or Control Ab at their optimal concentrations. Fab binding was detected using Alexa Fluor 488-conjugated secondary antibodies and mean cellular fluorescence determined using the Intellicyt iQue flow cytometry platform. […] This counter-screen strategy facilitates the exclusion of mutants that are locally misfolded or that have an expression defect. Binding of each test Fab to each mutant clone in the alanine scanning library was determined, in duplicate, by high-throughput flow cytometry.

Row | Binder | binding result [1] | Binding Reactivity (% WT) (R482A)
1 | B1 | no binding (tested: 1 µg/ml) | –
2 | B2 | – | 8.3
